Molecular target: T1, C-reactive protein (CRP) (human, UniProt P02741 19-224)
T1 sequence: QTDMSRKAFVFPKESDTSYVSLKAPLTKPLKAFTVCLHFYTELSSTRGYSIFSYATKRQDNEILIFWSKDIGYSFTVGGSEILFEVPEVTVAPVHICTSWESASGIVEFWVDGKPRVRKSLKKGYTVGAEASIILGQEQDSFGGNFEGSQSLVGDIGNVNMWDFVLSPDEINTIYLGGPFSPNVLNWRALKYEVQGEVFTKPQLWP
Test: magnetic bead pull-down with q-PCR, saturation fit; apparent Kd; 2 mM MgCl2; CRP-MNPs; BD buffer: 50 mM NaH2PO4 pH 8.0, 150 mM NaCl, 5 mM KCl, 2 mM MgCl2, 0.05% Tween-20; room temperature, 30 min; aptamer 1.5625-200 nM
Conditions: protein: commercial; tags: biotinylated (EZ-Link Sulfo-NHS-Biotin), on streptavidin magnetic nanoparticles; chain copies: 5; single strand, small loop predicted by Mfold (dG -2.93 kcal/mol)

B1: PF20N-RO-MARAS-84-1 (ssDNA)
DNA: GTTGACGGGCGATTGGTCTT
Kd: 23.6 ± 0.82 nM

From publication PMC5377317, “Generation of Aptamers from A Primer-Free Randomized ssDNA Library Using Magnetic-Assisted Rapid Aptamer Selection”
